Experimental data: US20210403601A1 (FAPON BIOTECH, published 2021)
Numbering of substitutions follows the chain as printed.

B1: Anti-Taq 2C7 recombinant antibody (WT) (antibody, mouse IgG1, kappa, V domains shown)
VH: QVQLQQPGAELVKPGASVRLSCQTSVDTFSTYYLYWVKQRPGEGLEWIGGVNPTSNPVFDEKFKSKATLTVDTSSSTAYMQLSSLTSVDSAVYYCTRSILRRGYYPDYWGQGTALTVSS
VL: DIQMTQTTSSLSASLGDRVTISCRGSQDIQNYVNWYQQKPDGTIKLLIYFTSRLQSGIPSRFSGSGSGTDYSLTIANLEQEDIATYFCQQDDTIPVTWGAGTKVELKR
notes: Mouse antibody expressed in CHO cells; also called WT antibody; antibody of sample 1
B2: Mutation 2 (antibody, V domains shown)
VH: B1 VH with L34I, D60N
VL: B1 VL with W98F
B3: Mutation 1 (antibody, V domains shown)
VH: B1 VH with L34I, D60N, P106F
VL: B1 VL with G25A, F50Y, W98F
notes: also called mutation 1 antibody
B4: Mutation 3 (antibody)
heavy: QVQLQQPGAELVKPGASVRLSCQTSVDTFSTYYAYWVKQRPGEGLEWIGGVNPTSNPVFDEKFKSKATLTVDTSSSTAYMQLSSLTSVDSAVYYCTRSILRRGYYQDYWGQGTALTVSSAKTTPPSVYPLAPGSAAQTNSMVTLGCLVKGYFPEPVTVTWNSGSLSSGVHTFPAVLQSDLYTLSSSVTVPSSTWPSETVTCNVAHPASSTKVDKKIVPRDCGCKPCICTVPEVSSVFIFPPKPKDVLTITLTPKVTCVVVDISKDDPEVQFSWFVDDVEVHTAQTQPREEQFNSTFRSVSELPIMHQDWLNGKEFKCRVNSAAFPAPIEKTISKTKGRPKAPQVYTIPPPKEQMAKDKVSLTCMITDFFPEDITVEWQWNGQPAENYKNTQPIMDTDGSYFVYSKLNVQKSNWEAGNTFTCSVLHEGLHNHHTEKSLSHSPGK
light: DIQMTQTTSSLSASLGDRVTISCRGSQDIQNYVNWYQQKPDGTIKLLIYYTSRLQSGIPSRFSGSGSGTDYSLTIANLEQEDIATYFCQQDDTIPVTYGAGTKVELKRADAAPTVSIFPPSSEQLTSGGASVVCFLNNFYPKDINVKWKIDGSERQNGVLNSWTDQDSKDSTYSMSSTLTLTKDEYERHNSYTCEATHKTSTSPIVKSFNRNEC
B5: Mutation 1-13 (antibody, V domains shown)
VH: B1 VH with S30T, L34I, V51I, D60N, I99V, L100V, P106F
VL: B1 VL with G25A, Q30N, F50Y, Q55H, I58V, I94V, V96I, W98F
notes: Mutation 1 background; CDRs built
B6: Mutation 1-15 (antibody, V domains shown)
VH: QVQLQQPGAELVKPGASVRLSCQTSVETFTTYYIYWVKQRPGEGLEWIGGVNPTSGGPVFNEKFKSKATLTVDTSSSTAYMQLSSLTSVDSAVYYCTRSLLRRGYYFDYWGQGTALTVSS
VL: B1 VL with G25A, Q30N, V33L, F50Y, Q55N, I94L, W98F
notes: as for B5
B7: Mutation 1-14 (antibody, V domains shown)
VH: B1 VH with D27E, L34I, V51L, D60N, I99V, L100I, P106F
VL: B1 VL with G25A, V33L, F50Y, Q55H, I58L, I94V, V96L, W98F
notes: as for B5
B8: WT 1-4 (antibody, V domains shown)
VH: B6 VH with E27N, T30S, I34L, V51I, N61D, L100V, L101V, F107P
VL: B1 VL with V33I, Q55H, I58V, I94V, V96I
notes: WT background; CDRs built
B9: WT 1-3 (antibody, V domains shown)
VH: B6 VH with I34L, N61D, L100V, F107P
VL: B1 VL with Q30N, V33L, Q55H, I94V
notes: WT background; CDRs built
B10: WT 1-8 (antibody, V domains shown)
VH: B1 VH with D27E, V51L, I99L, L100I
VL: B1 VL with V33L, Q55N, I58L, I94L, V96L
notes: WT background; CDRs built
B11: WT 1-7 (antibody, V domains shown)
VH: B1 VH with S30T, V51I, I99L, L100V
VL: B1 VL with Q30N, Q55N, I58V, I94L, V96I
notes: WT background; CDRs built
B12: WT 1-6 (antibody, V domains shown)
VH: B1 VH with I99L
VL: B1 VL with Q55N, I94L
notes: WT background; CDRs built
B13: WT 1-9 (antibody, V domains shown)
VH: B6 VH with I34L, N61D, L100I, F107P
VL: B1 VL with Q30N, V33L
notes: WT background; CDRs built
B14: WT 1-2 (antibody, V domains shown)
VH: B1 VH with D27E, V51L, L100I
VL: B1 VL with V33L, I58L, V96L
notes: WT background; CDRs built
B15: WT 1-1 (antibody, V domains shown)
VH: B1 VH with S30T, V51I, L100V
VL: B1 VL with Q30N, I58V, V96I
notes: WT background; CDRs built
B16: WT 1-5 (antibody, V domains shown)
VH: B6 VH with E27N, I34L, V51L, N61D, L100V, L101I, F107P
VL: B1 VL with Q30N, V33I, Q55H, I58L, I94V, V96L
notes: WT background; CDRs built
B17: Mutation 4 (antibody)
heavy: B4 heavy with A34W, D60K, Q106E
light: B4 light with G25L, Y50S, Y98E
B18: Mutation 5 (antibody)
heavy: B4 heavy with A34S, D60Y, Q106K
light: B4 light with G25I, Y50P, Y98R

These binders were tested against T1, Taq DNA polymerase (Thermus aquaticus, UniProt P19821 1-832) (assay: AMC sensor, antibody immobilised).
T1 construct: also called Taq enzyme; Taq DNA enzyme
T1 sequence (P19821 whole entry): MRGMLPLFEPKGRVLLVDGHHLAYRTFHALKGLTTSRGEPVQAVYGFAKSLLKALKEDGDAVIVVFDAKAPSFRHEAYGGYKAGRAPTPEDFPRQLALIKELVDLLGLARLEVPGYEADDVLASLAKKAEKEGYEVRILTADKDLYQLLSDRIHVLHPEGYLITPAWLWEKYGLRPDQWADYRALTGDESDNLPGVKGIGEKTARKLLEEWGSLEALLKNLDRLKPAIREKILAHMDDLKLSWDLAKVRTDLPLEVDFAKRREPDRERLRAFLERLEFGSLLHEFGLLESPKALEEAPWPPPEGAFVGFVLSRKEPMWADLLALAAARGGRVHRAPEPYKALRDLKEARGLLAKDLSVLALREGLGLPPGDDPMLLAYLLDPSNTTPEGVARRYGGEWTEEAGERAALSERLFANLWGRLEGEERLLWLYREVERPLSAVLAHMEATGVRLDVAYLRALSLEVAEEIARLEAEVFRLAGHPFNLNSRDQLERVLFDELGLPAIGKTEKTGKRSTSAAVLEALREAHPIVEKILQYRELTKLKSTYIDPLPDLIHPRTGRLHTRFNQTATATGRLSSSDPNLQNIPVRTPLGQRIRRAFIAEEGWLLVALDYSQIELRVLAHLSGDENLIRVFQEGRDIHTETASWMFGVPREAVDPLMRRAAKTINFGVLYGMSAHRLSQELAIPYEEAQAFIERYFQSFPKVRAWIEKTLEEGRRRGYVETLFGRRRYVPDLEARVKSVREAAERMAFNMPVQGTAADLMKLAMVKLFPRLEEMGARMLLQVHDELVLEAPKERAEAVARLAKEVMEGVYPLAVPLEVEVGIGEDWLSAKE
Work on B1 yielded a Kd of 2.46 nM, a koff of 0.000145 s⁻¹ and a kon of 59000 M⁻¹ s⁻¹. B2 was tested, and the Kd was 0.99 nM, the koff was 5.87e-05 s⁻¹ and the kon was 59200 M⁻¹ s⁻¹. B3 gave a Kd of 0.384 nM, a koff of 3.78e-05 s⁻¹ and a kon of 98300 M⁻¹ s⁻¹. For B4, the Kd was 20.7 nM, the koff was 0.00135 s⁻¹ and the kon was 65500 M⁻¹ s⁻¹.

Target: T1, Taq DNA polymerase
Assay: AMC sensor, antibody immobilised
Remark: another data set of the same source
Binder B5 has a Kd of 0.407 nM, a koff of 2.52e-05 s⁻¹ and a kon of 61700 M⁻¹ s⁻¹. In the case of B6, the Kd is reported as 0.12 nM, the koff is reported as 5.72e-06 s⁻¹ and the kon is reported as 47600 M⁻¹ s⁻¹. Binder B7 has a Kd of 0.229 nM, a koff of 1.92e-05 s⁻¹ and a kon of 84100 M⁻¹ s⁻¹. For B3, the Kd was 0.384 nM, the koff was 3.78e-05 s⁻¹ and the kon was 98300 M⁻¹ s⁻¹.

Target: T1, Taq DNA polymerase
Assay: AMC sensor, antibody immobilised
Remark: another data set of the same source
Work on B1 yielded a Kd of 2.46 nM, a koff of 0.000145 s⁻¹ and a kon of 59000 M⁻¹ s⁻¹. In the case of B8, the Kd is reported as 4.1 nM, the koff is reported as 0.000362 s⁻¹ and the kon is reported as 88400 M⁻¹ s⁻¹. For B9, the Kd was 2.3 nM, the koff was 0.00011 s⁻¹ and the kon was 48000 M⁻¹ s⁻¹. Work on B10 yielded a Kd of 3.02 nM, a koff of 9.85e-05 s⁻¹ and a kon of 32600 M⁻¹ s⁻¹. For B11, the Kd was 3.42 nM, the koff was 0.000296 s⁻¹ and the kon was 86700 M⁻¹ s⁻¹. In the case of B12, the Kd is reported as 6.65 nM, the koff is reported as 0.000506 s⁻¹ and the kon is reported as 76100 M⁻¹ s⁻¹. In the case of B13, the Kd is reported as 8.57 nM, the koff is reported as 0.000433 s⁻¹ and the kon is reported as 50500 M⁻¹ s⁻¹. In the case of B14, the Kd is reported as 3.41 nM, the koff is reported as 0.000166 s⁻¹ and the kon is reported as 48500 M⁻¹ s⁻¹. In the case of B15, the Kd is reported as 4.65 nM, the koff is reported as 0.000273 s⁻¹ and the kon is reported as 58800 M⁻¹ s⁻¹. Work on B16 yielded a Kd of 5.13 nM, a koff of 0.000314 s⁻¹ and a kon of 61200 M⁻¹ s⁻¹.

What follows are binders tested against T1, Taq DNA polymerase (assay: ELISA on coated Taq, antibody 0.46 ng/ml).
Description: (§1) The antibody activity was detected after mutation. Taq DNA enzyme was diluted with coating solution to the specified concentration, 100 μL per well overnight at 4° C.; which was washed twice with washing solution and patted dry on the next day; with addition of blocking solution (20% BSA+80% PBS), 120 μL per well at 37° C. for 1 h and patted dry; added the diluted Taq monoclonal antibodies, 100 μL/well at 37° C. for 30 min (partial supernatant for 1 h); washed 5 times with washing solution and patted dry; added goat anti-mouse IgG-HRP at 100 μL per well at 37° C. for 30 min; washed 5 times with washing solution and patted dry; added color developing solution A (50 μL/well), added color developing solution B (50 μL/well) for 10 min; added stop solution, 50 μL/well; followed by reading the OD value at 450 nm (reference 630 nm) on the microplate reader.
In the case of B1, the “OD 450 nm” value is reported as 0.399 OD. For B2, the “OD 450 nm” value was 0.059 OD. In the case of B3, the “OD 450 nm” value is reported as 0.442 OD.

What follows are binders tested against T1, Taq DNA polymerase (assay: ELISA on coated Taq, antibody 1.37 ng/ml).
Description: as §1
B1 was tested, and the “OD 450 nm” value was 0.798 OD. For B2, the “OD 450 nm” value was 0.514 OD. B3 was tested, and the “OD 450 nm” value was 0.887 OD. B17 was tested, and the “OD 450 nm” value was 0.057 OD. With B18 the “OD 450 nm” value was 0.054 OD. In the case of B4, the “OD 450 nm” value is reported as 0.067 OD.

What follows are binders tested against T1, Taq DNA polymerase (assay: ELISA on coated Taq, antibody 4.12 ng/ml).
Description: as §1
In the case of B1, the “OD 450 nm” value is reported as 1.58 OD. With B2 the “OD 450 nm” value was 1 OD. With B3 the “OD 450 nm” value was 1.7 OD. For B17, the “OD 450 nm” value was 0.354 OD. B18 was tested, and the “OD 450 nm” value was 0.362 OD. With B4 the “OD 450 nm” value was 0.45 OD.

The binders below were run against T1, Taq DNA polymerase (assay: ELISA on coated Taq, antibody 12.35 ng/ml).
Description: as §1
For B1, the “OD 450 nm” value was 2.1 OD. In the case of B2, the “OD 450 nm” value is reported as 1.84 OD. In the case of B3, the “OD 450 nm” value is reported as 2.14 OD. In the case of B17, the “OD 450 nm” value is reported as 0.679 OD. For B18, the “OD 450 nm” value was 0.701 OD. B4 was tested, and the “OD 450 nm” value was 0.874 OD.

The binders below were run against T1, Taq DNA polymerase (assay: ELISA on coated Taq, antibody 37.04 ng/ml).
Description: as §1
In the case of B1, the “OD 450 nm” value is reported as 2.3 OD. With B2 the “OD 450 nm” value was 2.05 OD. With B3 the “OD 450 nm” value was 2.38 OD. In the case of B17, the “OD 450 nm” value is reported as 1.38 OD. For B18, the “OD 450 nm” value was 1.41 OD. With B4 the “OD 450 nm” value was 1.78 OD.

What follows are binders tested against T1, Taq DNA polymerase (assay: ELISA on coated Taq, antibody 0 ng/ml (blank)).
Description: as §1
With B1 the “OD 450 nm” value was 0.035 OD. In the case of B2, the “OD 450 nm” value is reported as 0.05 OD. B3 was tested, and the “OD 450 nm” value was 0.047 OD.
